Starred links: 1 amine or outer side, 2 acyl side, 3 side chain; linkers in the order of their positions; H or OH if unused. Non-standard residues stand in square brackets, D forms with d. Groups on a side chain read outwards from the residue. No end group written: not given here. *: point of attachment. C20 diacid = O=C(O)CCCCCCCCCCCCCCCCCCC(=O)*; C18 diacid = O=C(O)CCCCCCCCCCCCCCCCC(=O)*; γGlu = O=C(O)[C@H](CCC(=O)[*:2])N[*:1]; AEEA = NCCOCCOCC(=O)O; Aib = CC(C)(N)C(=O)O
T1: anti-target CRF1R receptor (UniProt P34998 24-415, limits assumed)
T1 sequence (looked up): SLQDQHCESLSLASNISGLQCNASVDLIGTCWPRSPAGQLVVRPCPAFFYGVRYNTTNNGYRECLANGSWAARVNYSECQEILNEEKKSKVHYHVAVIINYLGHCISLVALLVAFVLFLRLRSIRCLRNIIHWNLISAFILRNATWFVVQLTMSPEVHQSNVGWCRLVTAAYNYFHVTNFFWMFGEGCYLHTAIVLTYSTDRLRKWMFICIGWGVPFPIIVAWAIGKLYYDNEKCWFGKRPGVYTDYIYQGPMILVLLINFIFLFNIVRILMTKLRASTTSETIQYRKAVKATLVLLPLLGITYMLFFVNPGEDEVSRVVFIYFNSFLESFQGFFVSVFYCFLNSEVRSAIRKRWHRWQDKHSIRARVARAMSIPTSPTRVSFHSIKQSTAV


Tests used:
[1] = target: T1, anti-target CRF1R receptor; assay: cell-based or functional assay
[2] = target: rat CRF2R α receptor (rat, UniProt P47866 20-411); assay: cell-based or functional assay
rat CRF2R α receptor, sequence (P47866 20-411): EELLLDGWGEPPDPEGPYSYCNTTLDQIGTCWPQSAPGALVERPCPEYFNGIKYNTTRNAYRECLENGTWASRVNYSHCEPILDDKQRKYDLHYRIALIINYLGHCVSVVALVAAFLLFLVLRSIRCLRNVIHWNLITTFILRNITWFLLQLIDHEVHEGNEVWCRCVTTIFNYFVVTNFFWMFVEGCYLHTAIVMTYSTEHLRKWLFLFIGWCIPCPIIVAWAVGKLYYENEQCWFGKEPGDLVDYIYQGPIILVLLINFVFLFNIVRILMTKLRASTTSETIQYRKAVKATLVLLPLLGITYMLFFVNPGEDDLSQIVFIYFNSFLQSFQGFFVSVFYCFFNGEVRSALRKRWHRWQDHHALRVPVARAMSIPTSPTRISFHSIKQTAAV

| Binder | EC50[nM] 0% HSA (cAMP, CRF1R-overexpression CHO cells) [1] [nM] | Emax (%) (cAMP, CRF1R-overexpression CHO cells) [1] | EC50 [nM], 0% HSA (cAMP, A7R5 cells) [2] [nM] |
| --- | --- | --- | --- |
| IVLSLDVPIKLK([AEEA-AEEA-γGlu-C18 diacid])QILLEQEKQK[Aib]QREQAETNKQILAQV-NH2 (N-terminus assumed; SMILES CC[C@H](C)[C@H](N)C(=O)N[C@H](C(=O)N[C@@H](CC(C)C)C(=O)N[C@@H](CO)C(=O)N[C@@H](CC(C)C)C(=O)N[C@@H](CC(=O)O)C(=O)N[C@H](C(=O)N1CCC[C@H]1C(=O)N[C@H](C(=O)N[C@@H](CCCCN)C(=O)N[C@@H](CC(C)C)C(=O)N[C@@H](CCCCNC(=O)COCCOCCNC(=O)COCCOCCNC(=O)CC[C@H](NC(=O)CCCCCCCCCCCCCCCCC(=O)O)C(=O)O)C(=O)N[C@@H](CCC(N)=O)C(=O)N[C@H](C(=O)N[C@@H](CC(C)C)C(=O)N[C@@H](CC(C)C)C(=O)N[C@@H](CCC(=O)O)C(=O)N[C@@H](CCC(N)=O)C(=O)N[C@@H](CCC(=O)O)C(=O)N[C@@H](CCCCN)C(=O)N[C@@H](CCC(N)=O)C(=O)N[C@@H](CCCCN)C(=O)NC(C)(C)C(=O)N[C@@H](CCC(N)=O)C(=O)N[C@@H](CCCNC(=N)N)C(=O)N[C@@H](CCC(=O)O)C(=O)N[C@@H](CCC(N)=O)C(=O)N[C@@H](C)C(=O)N[C@@H](CCC(=O)O)C(=O)N[C@H](C(=O)N[C@@H](CC(N)=O)C(=O)N[C@@H](CCCCN)C(=O)N[C@@H](CCC(N)=O)C(=O)N[C@H](C(=O)N[C@@H](CC(C)C)C(=O)N[C@@H](C)C(=O)N[C@@H](CCC(N)=O)C(=O)N[C@H](C(N)=O)C(C)C)[C@@H](C)CC)[C@@H](C)O)[C@@H](C)CC)[C@@H](C)CC)C(C)C)C(C)C) [peptide of SEQ ID NO: 79] | > 1000 | 8.74 | 3.99 |
| IVLSLDVPTKLK([AEEA-AEEA-γGlu-C20 diacid])QILLEQERQKKQREQAETN[Aib]QILAQV-NH2 (N-terminus assumed; SMILES CC[C@H](C)[C@H](N)C(=O)N[C@H](C(=O)N[C@@H](CC(C)C)C(=O)N[C@@H](CO)C(=O)N[C@@H](CC(C)C)C(=O)N[C@@H](CC(=O)O)C(=O)N[C@H](C(=O)N1CCC[C@H]1C(=O)N[C@H](C(=O)N[C@@H](CCCCN)C(=O)N[C@@H](CC(C)C)C(=O)N[C@@H](CCCCNC(=O)COCCOCCNC(=O)COCCOCCNC(=O)CC[C@H](NC(=O)CCCCCCCCCCCCCCCCCCC(=O)O)C(=O)O)C(=O)N[C@@H](CCC(N)=O)C(=O)N[C@H](C(=O)N[C@@H](CC(C)C)C(=O)N[C@@H](CC(C)C)C(=O)N[C@@H](CCC(=O)O)C(=O)N[C@@H](CCC(N)=O)C(=O)N[C@@H](CCC(=O)O)C(=O)N[C@@H](CCCNC(=N)N)C(=O)N[C@@H](CCC(N)=O)C(=O)N[C@@H](CCCCN)C(=O)N[C@@H](CCCCN)C(=O)N[C@@H](CCC(N)=O)C(=O)N[C@@H](CCCNC(=N)N)C(=O)N[C@@H](CCC(=O)O)C(=O)N[C@@H](CCC(N)=O)C(=O)N[C@@H](C)C(=O)N[C@@H](CCC(=O)O)C(=O)N[C@H](C(=O)N[C@@H](CC(N)=O)C(=O)NC(C)(C)C(=O)N[C@@H](CCC(N)=O)C(=O)N[C@H](C(=O)N[C@@H](CC(C)C)C(=O)N[C@@H](C)C(=O)N[C@@H](CCC(N)=O)C(=O)N[C@H](C(N)=O)C(C)C)[C@@H](C)CC)[C@@H](C)O)[C@@H](C)CC)[C@@H](C)O)C(C)C)C(C)C) [peptide of SEQ ID NO: 80] | > 1000 | 12.7 | 5.2 |
| IVLSLD[dV]PIGLK([AEEA-AEEA-γGlu-C18 diacid])QILLKQERQKK[Aib]REQAETNKRILERV-NH2 (N-terminus assumed; SMILES CC[C@H](C)[C@H](N)C(=O)N[C@H](C(=O)N[C@@H](CC(C)C)C(=O)N[C@@H](CO)C(=O)N[C@@H](CC(C)C)C(=O)N[C@@H](CC(=O)O)C(=O)N[C@@H](C(=O)N1CCC[C@H]1C(=O)N[C@H](C(=O)NCC(=O)N[C@@H](CC(C)C)C(=O)N[C@@H](CCCCNC(=O)COCCOCCNC(=O)COCCOCCNC(=O)CC[C@H](NC(=O)CCCCCCCCCCCCCCCCC(=O)O)C(=O)O)C(=O)N[C@@H](CCC(N)=O)C(=O)N[C@H](C(=O)N[C@@H](CC(C)C)C(=O)N[C@@H](CC(C)C)C(=O)N[C@@H](CCCCN)C(=O)N[C@@H](CCC(N)=O)C(=O)N[C@@H](CCC(=O)O)C(=O)N[C@@H](CCCNC(=N)N)C(=O)N[C@@H](CCC(N)=O)C(=O)N[C@@H](CCCCN)C(=O)N[C@@H](CCCCN)C(=O)NC(C)(C)C(=O)N[C@@H](CCCNC(=N)N)C(=O)N[C@@H](CCC(=O)O)C(=O)N[C@@H](CCC(N)=O)C(=O)N[C@@H](C)C(=O)N[C@@H](CCC(=O)O)C(=O)N[C@H](C(=O)N[C@@H](CC(N)=O)C(=O)N[C@@H](CCCCN)C(=O)N[C@@H](CCCNC(=N)N)C(=O)N[C@H](C(=O)N[C@@H](CC(C)C)C(=O)N[C@@H](CCC(=O)O)C(=O)N[C@@H](CCCNC(=N)N)C(=O)N[C@H](C(N)=O)C(C)C)[C@@H](C)CC)[C@@H](C)O)[C@@H](C)CC)[C@@H](C)CC)C(C)C)C(C)C) [peptide of SEQ ID NO: 83] | > 1000 | 7.51 | 1.83 |
| IVLSLDVPIKLK([AEEA-AEEA-γGlu-C18 diacid])QILLKQERQKKQREQAETNKQILAQV-NH2 (N-terminus assumed; SMILES CC[C@H](C)[C@H](N)C(=O)N[C@H](C(=O)N[C@@H](CC(C)C)C(=O)N[C@@H](CO)C(=O)N[C@@H](CC(C)C)C(=O)N[C@@H](CC(=O)O)C(=O)N[C@H](C(=O)N1CCC[C@H]1C(=O)N[C@H](C(=O)N[C@@H](CCCCN)C(=O)N[C@@H](CC(C)C)C(=O)N[C@@H](CCCCNC(=O)COCCOCCNC(=O)COCCOCCNC(=O)CC[C@H](NC(=O)CCCCCCCCCCCCCCCCC(=O)O)C(=O)O)C(=O)N[C@@H](CCC(N)=O)C(=O)N[C@H](C(=O)N[C@@H](CC(C)C)C(=O)N[C@@H](CC(C)C)C(=O)N[C@@H](CCCCN)C(=O)N[C@@H](CCC(N)=O)C(=O)N[C@@H](CCC(=O)O)C(=O)N[C@@H](CCCNC(=N)N)C(=O)N[C@@H](CCC(N)=O)C(=O)N[C@@H](CCCCN)C(=O)N[C@@H](CCCCN)C(=O)N[C@@H](CCC(N)=O)C(=O)N[C@@H](CCCNC(=N)N)C(=O)N[C@@H](CCC(=O)O)C(=O)N[C@@H](CCC(N)=O)C(=O)N[C@@H](C)C(=O)N[C@@H](CCC(=O)O)C(=O)N[C@H](C(=O)N[C@@H](CC(N)=O)C(=O)N[C@@H](CCCCN)C(=O)N[C@@H](CCC(N)=O)C(=O)N[C@H](C(=O)N[C@@H](CC(C)C)C(=O)N[C@@H](C)C(=O)N[C@@H](CCC(N)=O)C(=O)N[C@H](C(N)=O)C(C)C)[C@@H](C)CC)[C@@H](C)O)[C@@H](C)CC)[C@@H](C)CC)C(C)C)C(C)C) [peptide of SEQ ID NO: 85] | > 1000 | 0.14 | 0.73 |
| IVLSLDVPIKLK([AEEA-AEEA-γGlu-C18 diacid])QILLKQERQKKQREQAKTNKQILAQV-NH2 (N-terminus assumed; SMILES CC[C@H](C)[C@H](N)C(=O)N[C@H](C(=O)N[C@@H](CC(C)C)C(=O)N[C@@H](CO)C(=O)N[C@@H](CC(C)C)C(=O)N[C@@H](CC(=O)O)C(=O)N[C@H](C(=O)N1CCC[C@H]1C(=O)N[C@H](C(=O)N[C@@H](CCCCN)C(=O)N[C@@H](CC(C)C)C(=O)N[C@@H](CCCCNC(=O)COCCOCCNC(=O)COCCOCCNC(=O)CC[C@H](NC(=O)CCCCCCCCCCCCCCCCC(=O)O)C(=O)O)C(=O)N[C@@H](CCC(N)=O)C(=O)N[C@H](C(=O)N[C@@H](CC(C)C)C(=O)N[C@@H](CC(C)C)C(=O)N[C@@H](CCCCN)C(=O)N[C@@H](CCC(N)=O)C(=O)N[C@@H](CCC(=O)O)C(=O)N[C@@H](CCCNC(=N)N)C(=O)N[C@@H](CCC(N)=O)C(=O)N[C@@H](CCCCN)C(=O)N[C@@H](CCCCN)C(=O)N[C@@H](CCC(N)=O)C(=O)N[C@@H](CCCNC(=N)N)C(=O)N[C@@H](CCC(=O)O)C(=O)N[C@@H](CCC(N)=O)C(=O)N[C@@H](C)C(=O)N[C@@H](CCCCN)C(=O)N[C@H](C(=O)N[C@@H](CC(N)=O)C(=O)N[C@@H](CCCCN)C(=O)N[C@@H](CCC(N)=O)C(=O)N[C@H](C(=O)N[C@@H](CC(C)C)C(=O)N[C@@H](C)C(=O)N[C@@H](CCC(N)=O)C(=O)N[C@H](C(N)=O)C(C)C)[C@@H](C)CC)[C@@H](C)O)[C@@H](C)CC)[C@@H](C)CC)C(C)C)C(C)C) [peptide of SEQ ID NO: 86] | > 1000 | 15.9 | 0.69 |

Source: patent US12679878B2, “CRF2 receptor agonists and their use in therapy” (SANOFI, priority 2020, dated 2026)
